Data reported in paper PMC10167749, “The catalytic domains of Streptococcus mutans glucosyltransferases: a structural analysis” (Acta Crystallographica. Section F, Structural Biology …, 2023).

Target: T1, catalytic domain of Streptococcus mutans GtfB (GtfB-CD) (Streptococcus mutans (UA159), UniProt P08987 191-1051)
T1 construct: Glucosyltransferase GtfB (GTF-I), Streptococcus mutans UA159, catalytic domain, residues 191-1051 (UniProt P08987); Cloned between NcoI and XhoI of pET-23d; also called GTF-I; source: E. coli BL21(DE3), pET-23d, purified (HisTrap FF, Mono Q, Superdex 200)
T1 sequence: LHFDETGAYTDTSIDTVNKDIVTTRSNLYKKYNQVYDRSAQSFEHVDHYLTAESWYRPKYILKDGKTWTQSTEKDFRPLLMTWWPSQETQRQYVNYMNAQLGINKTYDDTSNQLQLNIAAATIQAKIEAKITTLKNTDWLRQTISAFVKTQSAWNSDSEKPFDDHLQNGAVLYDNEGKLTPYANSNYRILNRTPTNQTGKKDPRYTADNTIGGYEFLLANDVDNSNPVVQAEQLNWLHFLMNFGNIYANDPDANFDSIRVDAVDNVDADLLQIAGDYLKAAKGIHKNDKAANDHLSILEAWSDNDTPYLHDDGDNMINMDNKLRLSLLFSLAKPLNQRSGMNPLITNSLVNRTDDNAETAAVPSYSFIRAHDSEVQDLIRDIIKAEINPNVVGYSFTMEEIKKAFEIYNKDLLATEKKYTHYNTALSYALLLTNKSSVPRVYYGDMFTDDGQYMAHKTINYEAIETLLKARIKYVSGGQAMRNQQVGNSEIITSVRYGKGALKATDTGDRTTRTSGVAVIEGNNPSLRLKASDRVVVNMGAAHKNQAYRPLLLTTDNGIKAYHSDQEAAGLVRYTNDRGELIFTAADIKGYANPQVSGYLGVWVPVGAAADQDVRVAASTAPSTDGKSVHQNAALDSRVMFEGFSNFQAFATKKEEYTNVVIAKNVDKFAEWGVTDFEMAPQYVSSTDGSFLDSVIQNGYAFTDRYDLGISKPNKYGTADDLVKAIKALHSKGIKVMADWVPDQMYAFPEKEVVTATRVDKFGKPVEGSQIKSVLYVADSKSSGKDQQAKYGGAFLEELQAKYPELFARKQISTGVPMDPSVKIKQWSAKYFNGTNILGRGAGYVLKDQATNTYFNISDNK
Experiment: SPR; Biacore T200; iSRCR1 immobilised on a CM5 chip by amine coupling; analyte GtfB-CD 2-8 uM in 20 mM HEPES pH 7.4, 150 mM NaCl, 1 mM CaCl2 at 20 ul/min; each concentration in triplicate; kinetic fitting
Conditions: both partners purified

B1: recombinant scavenger receptor cysteine-rich domain 1 of Gp340 expressed in insect cells (iSRCR1) (domain or fragment)
chain: not shown
notes: Gp340 (salivary agglutinin), scavenger receptor cysteine-rich (SRCR) domain 1; source: recombinant, expressed in insect cells
Kd: 509 nM
